From the supplement of paper PMC10567573

B1: FBXO3 (parent)
chain: DEEERRRRVFDVPIRRRRCSRLF

Variants of: B1
Assay: protein stability index of a GFP-peptide fusion (GPS, HEK-293T) (PSI 1-6); higher = more stable
Conditions: c terminus: native
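Further: lentivirally expressed fusions sorted by FACS into six bins by GFP to DsRed ratio, PSI derived from sequencing read proportions per bin multiplied by bin number.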

Q: Which protein stability index does the source give for DEEEARRRVFDVPIRRRRCSRLF [R5A] here?
A: 3.9

Q: Which protein stability index does the source give for DEEEIRRRVFDVPIRRRRCSRLF [R5I] here?
A: 3.44

Q: With DEEEHRRRVFDVPIRRRRCSRLF [R5H] as the variant, how does the protein stability index read?
A: 3.41

Q: With DEEESRRRVFDVPIRRRRCSRLF [R5S] as the variant, how does the protein stability index read?
A: 3.55

Q: With DEEEGRRRVFDVPIRRRRCSRLF [R5G] as the variant, how does the protein stability index read?
A: 3.54

Q: Which protein stability index does the source give for DEEEKRRRVFDVPIRRRRCSRLF [R5K] here?
A: 3.32

Q: Which protein stability index does the source give for DEEENRRRVFDVPIRRRRCSRLF [R5N] here?
A: 3.77

Q: Which protein stability index does the source give for DEEEDRRRVFDVPIRRRRCSRLF [R5D] here?
A: 3.64

Q: For DEEEQRRRVFDVPIRRRRCSRLF [R5Q], which protein stability index is on record?
A: 4.1

Q: For DEEEPRRRVFDVPIRRRRCSRLF [R5P], which protein stability index is on record?
A: 3.3

Q: With DEEECRRRVFDVPIRRRRCSRLF [R5C] as the variant, how does the protein stability index read?
A: 2.57

Q: With DEEEVRRRVFDVPIRRRRCSRLF [R5V] as the variant, how does the protein stability index read?
A: 3.25

Q: For DEEEWRRRVFDVPIRRRRCSRLF [R5W], which protein stability index is on record?
A: 2.23

Q: For DEEELRRRVFDVPIRRRRCSRLF [R5L], which protein stability index is on record?
A: 3.12

Q: With DEEEYRRRVFDVPIRRRRCSRLF [R5Y] as the variant, how does the protein stability index read?
A: 2.85

Q: With DEEEERRRVFDVPIRRRRCSRLF [R5E] as the variant, how does the protein stability index read?
A: 4.12

Q: Which protein stability index does the source give for DEEEFRRRVFDVPIRRRRCSRLF [R5F] here?
A: 3.24

Q: With DEEETRRRVFDVPIRRRRCSRLF [R5T] as the variant, how does the protein stability index read?
A: 3.51

Q: Which protein stability index does the source give for DEEEMRRRVFDVPIRRRRCSRLF [R5M] here?
A: 3.59

Q: For DEEERLRRVFDVPIRRRRCSRLF [R6L], which protein stability index is on record?
A: 2.69

Q: With DEEERARRVFDVPIRRRRCSRLF [R6A] as the variant, how does the protein stability index read?
A: 3.51

Q: With DEEERCRRVFDVPIRRRRCSRLF [R6C] as the variant, how does the protein stability index read?
A: 2.83

Q: For DEEERTRRVFDVPIRRRRCSRLF [R6T], which protein stability index is on record?
A: 3.66

Q: With DEEERMRRVFDVPIRRRRCSRLF [R6M] as the variant, how does the protein stability index read?
A: 2.58

Q: With DEEERPRRVFDVPIRRRRCSRLF [R6P] as the variant, how does the protein stability index read?
A: 3.79

Q: With DEEERERRVFDVPIRRRRCSRLF [R6E] as the variant, how does the protein stability index read?
A: 4.16

Q: With DEEERFRRVFDVPIRRRRCSRLF [R6F] as the variant, how does the protein stability index read?
A: 1.35

Q: Which protein stability index does the source give for DEEERWRRVFDVPIRRRRCSRLF [R6W] here?
A: 1.56

Q: With DEEERIRRVFDVPIRRRRCSRLF [R6I] as the variant, how does the protein stability index read?
A: 2.36

Q: For DEEERHRRVFDVPIRRRRCSRLF [R6H], which protein stability index is on record?
A: 3.17

Q: For DEEERNRRVFDVPIRRRRCSRLF [R6N], which protein stability index is on record?
A: 3.87

Q: For DEEERKRRVFDVPIRRRRCSRLF [R6K], which protein stability index is on record?
A: 3.35

Q: For DEEERGRRVFDVPIRRRRCSRLF [R6G], which protein stability index is on record?
A: 4.09

Q: With DEEERVRRVFDVPIRRRRCSRLF [R6V] as the variant, how does the protein stability index read?
A: 3.2

Q: Which protein stability index does the source give for DEEERSRRVFDVPIRRRRCSRLF [R6S] here?
A: 3.8

Q: For DEEERDRRVFDVPIRRRRCSRLF [R6D], which protein stability index is on record?
A: 4.26

Q: With DEEERYRRVFDVPIRRRRCSRLF [R6Y] as the variant, how does the protein stability index read?
A: 1.78

Q: Which protein stability index does the source give for DEEERQRRVFDVPIRRRRCSRLF [R6Q] here?
A: 3.79

Q: For DEEERRRRQFDVPIRRRRCSRLF [V9Q], which protein stability index is on record?
A: 3.45

Q: With DEEERRRRRFDVPIRRRRCSRLF [V9R] as the variant, how does the protein stability index read?
A: 2.71

Q: With DEEERRRRDFDVPIRRRRCSRLF [V9D] as the variant, how does the protein stability index read?
A: 4.46

Q: Which protein stability index does the source give for DEEERRRRLFDVPIRRRRCSRLF [V9L] here?
A: 2.53

Q: With DEEERRRRNFDVPIRRRRCSRLF [V9N] as the variant, how does the protein stability index read?
A: 3.75

Q: For DEEERRRRSFDVPIRRRRCSRLF [V9S], which protein stability index is on record?
A: 3.47

Q: For DEEERRRRIFDVPIRRRRCSRLF [V9I], which protein stability index is on record?
A: 2.42

Q: Which protein stability index does the source give for DEEERRRRAFDVPIRRRRCSRLF [V9A] here?
A: 3.43

Q: Which protein stability index does the source give for DEEERRRRCFDVPIRRRRCSRLF [V9C] here?
A: 2.74

Q: Which protein stability index does the source give for DEEERRRRPFDVPIRRRRCSRLF [V9P] here?
A: 3.44

Q: For DEEERRRRKFDVPIRRRRCSRLF [V9K], which protein stability index is on record?
A: 3.72

Q: With DEEERRRRFFDVPIRRRRCSRLF [V9F] as the variant, how does the protein stability index read?
A: 2.19

Q: For DEEERRRREFDVPIRRRRCSRLF [V9E], which protein stability index is on record?
A: 4.03

Q: For DEEERRRRGFDVPIRRRRCSRLF [V9G], which protein stability index is on record?
A: 3.87

Q: With DEEERRRRHFDVPIRRRRCSRLF [V9H] as the variant, how does the protein stability index read?
A: 3.54

Q: Which protein stability index does the source give for DEEERRRRMFDVPIRRRRCSRLF [V9M] here?
A: 2.47

Q: Which protein stability index does the source give for DEEERRDRVFDVPIRRRRCSRLF [R7D] here?
A: 4

Q: For DEEERRNRVFDVPIRRRRCSRLF [R7N], which protein stability index is on record?
A: 3.8

Q: With DEEERRFRVFDVPIRRRRCSRLF [R7F] as the variant, how does the protein stability index read?
A: 2.61

Q: Which protein stability index does the source give for DEEERRSRVFDVPIRRRRCSRLF [R7S] here?
A: 4.28

Q: With DEEERRYRVFDVPIRRRRCSRLF [R7Y] as the variant, how does the protein stability index read?
A: 2.51

Q: For DEEERRQRVFDVPIRRRRCSRLF [R7Q], which protein stability index is on record?
A: 3.69

Q: For DEEERRCRVFDVPIRRRRCSRLF [R7C], which protein stability index is on record?
A: 2.89

Q: With DEEERRHRVFDVPIRRRRCSRLF [R7H] as the variant, how does the protein stability index read?
A: 3.06

Q: Which protein stability index does the source give for DEEERRMRVFDVPIRRRRCSRLF [R7M] here?
A: 2.3

Q: Which protein stability index does the source give for DEEERRTRVFDVPIRRRRCSRLF [R7T] here?
A: 3.67

Q: For DEEERRWRVFDVPIRRRRCSRLF [R7W], which protein stability index is on record?
A: 1.97

Q: For DEEERRARVFDVPIRRRRCSRLF [R7A], which protein stability index is on record?
A: 3.6

Q: Which protein stability index does the source give for DEEERRIRVFDVPIRRRRCSRLF [R7I] here?
A: 2.8

Q: For DEEERRGRVFDVPIRRRRCSRLF [R7G], which protein stability index is on record?
A: 3.64

Q: Which protein stability index does the source give for DEEERRLRVFDVPIRRRRCSRLF [R7L] here?
A: 3.19

Q: For DEEERRVRVFDVPIRRRRCSRLF [R7V], which protein stability index is on record?
A: 3.01

Q: With DEEERRERVFDVPIRRRRCSRLF [R7E] as the variant, how does the protein stability index read?
A: 3.88

Q: Which protein stability index does the source give for DEEERRPRVFDVPIRRRRCSRLF [R7P] here?
A: 3.71

Q: With DEEERRKRVFDVPIRRRRCSRLF [R7K] as the variant, how does the protein stability index read?
A: 2.79

Q: With DEEERRRSVFDVPIRRRRCSRLF [R8S] as the variant, how does the protein stability index read?
A: 3.01

Q: Which protein stability index does the source give for DEEERRRFVFDVPIRRRRCSRLF [R8F] here?
A: 1.28

Q: Which protein stability index does the source give for DEEERRRCVFDVPIRRRRCSRLF [R8C] here?
A: 2.33

Q: With DEEERRRYVFDVPIRRRRCSRLF [R8Y] as the variant, how does the protein stability index read?
A: 1.95

Q: With DEEERRRHVFDVPIRRRRCSRLF [R8H] as the variant, how does the protein stability index read?
A: 3.1

Q: For DEEERRRDVFDVPIRRRRCSRLF [R8D], which protein stability index is on record?
A: 3.58

Q: With DEEERRREVFDVPIRRRRCSRLF [R8E] as the variant, how does the protein stability index read?
A: 3.64

Q: With DEEERRRGVFDVPIRRRRCSRLF [R8G] as the variant, how does the protein stability index read?
A: 4.29

Q: Which protein stability index does the source give for DEEERRRAVFDVPIRRRRCSRLF [R8A] here?
A: 3.74

Q: With DEEERRRLVFDVPIRRRRCSRLF [R8L] as the variant, how does the protein stability index read?
A: 2.94

Q: For DEEERRRVVFDVPIRRRRCSRLF [R8V], which protein stability index is on record?
A: 3.66

Q: With DEEERRRPVFDVPIRRRRCSRLF [R8P] as the variant, how does the protein stability index read?
A: 3.63

Q: With DEEERRRMVFDVPIRRRRCSRLF [R8M] as the variant, how does the protein stability index read?
A: 2.89

Q: Which protein stability index does the source give for DEEERRRKVFDVPIRRRRCSRLF [R8K] here?
A: 2.87

Q: With DEEERRRNVFDVPIRRRRCSRLF [R8N] as the variant, how does the protein stability index read?
A: 3.35

Q: Which protein stability index does the source give for DEEERRRIVFDVPIRRRRCSRLF [R8I] here?
A: 2.88

Q: With DEEERRRWVFDVPIRRRRCSRLF [R8W] as the variant, how does the protein stability index read?
A: 2.4

Q: With DEEERRRTVFDVPIRRRRCSRLF [R8T] as the variant, how does the protein stability index read?
A: 3.86

Q: Which protein stability index does the source give for DEEERRRQVFDVPIRRRRCSRLF [R8Q] here?
A: 3.66

Q: With DEEWRRRRVFDVPIRRRRCSRLF [E4W] as the variant, how does the protein stability index read?
A: 1.73

Q: For DEESRRRRVFDVPIRRRRCSRLF [E4S], which protein stability index is on record?
A: 2.08

Q: Which protein stability index does the source give for DEEVRRRRVFDVPIRRRRCSRLF [E4V] here?
A: 1.86

Q: Which protein stability index does the source give for DEETRRRRVFDVPIRRRRCSRLF [E4T] here?
A: 2.14

Q: Which protein stability index does the source give for DEEYRRRRVFDVPIRRRRCSRLF [E4Y] here?
A: 2.14
